We go through two molecules from patent US9539367B2, “Gallium inhibits biofilm formation” (priority 2003, dated 2017).

This experiment relates to P. aeruginosa biofilm. As to the kind of experiment: Biofilm formation of GFP-labeled P. aeruginosa in continuous culture flow cells. It is filed as cell-based. As to conditions: for effect on P. aeruginosa biofilm formation: Fe chelation, concentrations that did not alter growth (lactoferrin 20 μg ml).

B1: conalbumin: Fe chelator (protein, UniProt P02789 20-705, looked up)
Ovotransferrin: APPKSVIRWCTISSPEEKKCNNLRDLTQQERISLTCVQKATYLDCIKAIANNEADAISLDGGQAFEAGLAPYKLKPIAAEVYEHTEGSTTSYYAVAVVKKGTEFTVNDLQGKTSCHTGLGRSAGWNIPIGTLLHRGAIEWEGIESGSVEQAVAKFFSASCVPGATIEQKLCRQCKGDPKTKCARNAPYSGYSGAFHCLKDGKGDVAFVKHTTVNENAPDQKDEYELLCLDGSRQPVDNYKTCNWARVAAHAVVARDDNKVEDIWSFLSKAQSDFGVDTKSDFHLFGPPGKKDPVLKDLLFKDSAIMLKRVPSLMDSQLYLGFEYYSAIQSMRKDQLTPSPRENRIQWCAVGKDEKSKCDRWSVVSNGDVECTVVDETKDCIIKIMKGEADAVALDGGLVYTAGVCGLVPVMAERYDDESQCSKTDERPASYFAVAVARKDSNVNWNNLKGKKSCHTAVGRTAGWVIPMGLIHNRTGTCNFDEYFSEGCAPGSPPNSRLCQLCQGSGGIPPEKCVASSHEKYFGYTGALRCLVEKGDVAFIQHSTVEENTGGKNKADWAKNLQMDDFELLCTDGRRANVMDYRECNLAEVPTHAVVVRPEKANKIRDLLERQEKRFGVNGSEKSKFMMFESQNKDLLFKDLTKCLFKVREGTTYKEFLGDKFYTVISSLKTCNPSDILQMCSFLEGK
For B1, the “effect on P. aeruginosa biofilm formation” value was “duplicated”.

B2: lactoferrin: Fe-binding protein (protein, UniProt P02788 20-710, looked up)
Lactotransferrin: GRRRSVQWCAVSQPEATKCFQWQRNMRKVRGPPVSCIKRDSPIQCIQAIAENRADAVTLDGGFIYEAGLAPYKLRPVAAEVYGTERQPRTHYYAVAVVKKGGSFQLNELQGLKSCHTGLRRTAGWNVPIGTLRPFLNWTGPPEPIEAAVARFFSASCVPGADKGQFPNLCRLCAGTGENKCAFSSQEPYFSYSGAFKCLRDGAGDVAFIRESTVFEDLSDEAERDEYELLCPDNTRKPVDKFKDCHLARVPSHAVVARSVNGKEDAIWNLLRQAQEKFGKDKSPKFQLFGSPSGQKDLLFKDSAIGFSRVPPRIDSGLYLGSGYFTAIQNLRKSEEEVAARRARVVWCAVGEQELRKCNQWSGLSEGSVTCSSASTTEDCIALVLKGEADAMSLDGGYVYTAGKCGLVPVLAENYKSQQSSDPDPNCVDRPVEGYLAVAVVRRSDTSLTWNSVKGKKSCHTAVDRTAGWNIPMGLLFNQTGSCKFDEYFSQSCAPGSDPRSNLCALCIGDEQGENKCVPNSNERYYGYTGAFRCLAENAGDVAFVKDVTVLQNTDGNNNEAWAKDLKLADFALLCLDGKRKPVTEARSCHLAMAPNHAVVSRMDKVERLKQVLLHQQAKFGRNGSDCPDKFCLFQSETKNLLFNDNTECLARLHGKTTYEKYLGPQYVAGITNLKKCSTSPLLEACEFLRK
As for B2, the “effect on P. aeruginosa biofilm formation” value is given as “profoundly inhibited biofilm formation”. Further, the “effect on established biofilm” value (once the biofilm was established) is recorded as “unable to alter the biofilm”.
